The target of assay [1] is TSHR coated on ELISA plate wells (RSR Ltd) (human) (UniProt P16473). Nature of the assay: ELISA on TSHR-coated wells, inhibition of TSH-biotin binding. In general terms: An ELISA detects its analyte on a solid surface through an enzyme-linked reagent.
The target is the same in assay [2]. Nature of the assay: ELISA on TSHR-coated wells, inhibition of 5C9 IgG-biotin binding.
In assay [3] the target is TSHR coated onto tubes (TSHR coated tubes) (human) (UniProt P16473). Briefly: TSHR coated tubes.
The target is the same in assay [4]. Nature of the assay: TSHR coated tubes, in the presence of HBD pool (Table 5).
Assay [5] has the same target. Nature of the assay: TSHR coated tubes, in the presence of HBD pool (Tables 4a, 4b).
Assay [6] has the same target. Nature of the assay: TSHR coated tubes, in presence of HBD pool.
The target in assay [7] is TSHR coated on ELISA plate wells (RSR Ltd) (human) (UniProt P16473). Nature of the assay: ELISA on TSHR-coated wells, TSH-biotin binding with HBD pool (no competitor).
For assay [8], the target named is human TSHR (wild type) expressed in CHO cells (human) (UniProt P16473). Briefly: cell-based or functional assay.
Assay [9] deals with human TSHR expressed on CHO cells (human) (UniProt P16473). Nature of the assay: cell-based or functional assay.
Assay [10] deals with wild type human TSHR (human) (UniProt P16473). Nature of the assay: cell-based or functional assay.
Assay [11] has as its target T1, TSHR coated onto tubes (human, UniProt P16473 21-764, limits assumed).
T1 construct: whole entry named; also called TSHR coated tubes; thyrotropin receptor
Nature of the assay: TSHR coated tubes, competitor 125I-TSH.

Assay [12] deals with T1, TSHR coated onto tubes. Nature of the assay: TSHR coated tubes, competitor 125I-5C9 IgG.
The target of assay [13] is T1, TSHR coated onto tubes. Briefly: TSHR coated tubes, competitor 125I-M22 IgG.

The results in this text go back to patent US8840891 (RSR, dated 2014).

As to “M22 IgG, human monoclonal thyroid stimulating autoantibody (hMAb TSHR1)”, the results for the % inhibition in [1] and in [2] were 15% and 28%, respectively.

“M22 IgG (human monoclonal thyroid stimulating autoantibody, hMAb TSHR1)”: the average % binding of labelled tracer in [3] turned out to be 21%. For the same molecule, the % of labelled protein bound in assay [4] came out at 24%; in assay [5] it was 20%. Moreover, the % binding of labelled tracer in assay [6] is 17%.

Take TSH-biotin (ligand): the Abs 450 nm in assay [7] was 2.14 Abs 450 nm.

B1: 9D33 IgG (antibody, V domains shown)
VH: DVQIQQPGTELVKPGASVRLSCKASGYTFTTYWMHWVKQRPGQGLEWIGEIDPSDSYTNYNQKFKGKATLTVDKSSSTAYMHLSSLTSEDSAVYYCSRNYGSGYYFDYWGQGTTLTVSS
VL: GVEMTQSPAIMSASPGEKVTMTCSASSSVSYMHWYQQKSGTSPKRWIYDTSKLASGVPARFSGSGSGTSYSLTISSMETEDAATYYCQQWSSNPWTFGGGTKLEIK
For B1, in assay [8], the cyclic AMP production; 9D33 IgG 100 µg/mL + M22 Fab 3 ng/mL (fmol/cell well) stood at 1050, the cyclic AMP production; 9D33 IgG 100 µg/mL + pTSH 3 ng/mL (fmol/cell well) came to 2220 and the cyclic AMP production; 9D33 IgG 100 µg/mL only (fmol/cell well) was found to be 626. In addition, in assay [9], the Cyclic AMP, serum T1 + 0.001 µg/mL 9D33 IgG (fmol/cell well) is 21600; the Cyclic AMP, serum T1 + 0.01 µg/mL 9D33 IgG (fmol/cell well) stood at 19900; the Cyclic AMP, serum T1 + 0.1 µg/mL 9D33 IgG (fmol/cell well) was 17900; the Cyclic AMP, serum T1 + 1 µg/mL 9D33 IgG (fmol/cell well) turned out to be 4990. Besides, in assay [9], the Cyclic AMP, serum T1 + 10 µg/mL 9D33 IgG (fmol/cell well) was 1460; the Cyclic AMP, serum T3 + 0.001 µg/mL 9D33 IgG (fmol/cell well) came out at 12200; the Cyclic AMP, serum T3 + 0.01 µg/mL 9D33 IgG (fmol/cell well) was 12200; the Cyclic AMP, serum T3 + 0.1 µg/mL 9D33 IgG (fmol/cell well) was 12000. In addition, in [9], the Cyclic AMP, serum T3 + 1 µg/mL 9D33 IgG (fmol/cell well) is 7380; the Cyclic AMP, serum T3 + 10 µg/mL 9D33 IgG (fmol/cell well) was determined as 4260; the Cyclic AMP, serum T6 + 0.001 µg/mL 9D33 IgG (single determination) (fmol/cell well) was 10300; the Cyclic AMP, serum T6 + 0.01 µg/mL 9D33 IgG (fmol/cell well) came to 10300. In addition, in assay [9], the Cyclic AMP, serum T6 + 0.1 µg/mL 9D33 IgG (fmol/cell well) was 8700; the Cyclic AMP, serum T6 + 1 µg/mL 9D33 IgG (fmol/cell well) is 5450; the Cyclic AMP, serum T6 + 10 µg/mL 9D33 IgG (fmol/cell well) turned out to be 2260; the Cyclic AMP, serum T19 + 0.001 µg/mL 9D33 IgG (fmol/cell well) was 7090. Also, in assay [9], the Cyclic AMP, serum T19 + 0.01 µg/mL 9D33 IgG (mean of duplicate) (fmol/cell well) is 5760; the Cyclic AMP, serum T19 + 0.1 µg/mL 9D33 IgG (mean of duplicate) (fmol/cell well) was determined as 2390; the Cyclic AMP, serum T19 + 1 µg/mL 9D33 IgG (fmol/cell well) came to 404; the Cyclic AMP, serum T19 + 10 µg/mL 9D33 IgG (fmol/cell well) was found to be 448. Further, in assay [9], the Cyclic AMP, serum T20 + 0.001 µg/mL 9D33 IgG (fmol/cell well) was 7510; the Cyclic AMP, serum T20 + 0.01 µg/mL 9D33 IgG (fmol/cell well) is 5390; the Cyclic AMP, serum T20 + 0.1 µg/mL 9D33 IgG (fmol/cell well) is 5360; the Cyclic AMP, serum T20 + 1 µg/mL 9D33 IgG (mean of duplicate) (fmol/cell well) turned out to be 980. The Cyclic AMP, serum T20 + 10 µg/mL 9D33 IgG (fmol/cell well) in assay [9] was 204. Besides, in assay [10], the cyclic AMP; 100 µg/mL 9D33 IgG only (fmol/cell well) is 534, the cyclic AMP; T21 + 0.001 µg/mL 9D33 IgG (fmol/cell well) came out at 10200, the cyclic AMP; T21 + 0.01 µg/mL 9D33 IgG (fmol/cell well) is 10800 and the cyclic AMP; T21 + 0.1 µg/mL 9D33 IgG (fmol/cell well) was 8720. Also, in assay [10], the cyclic AMP; T21 + 1 µg/mL 9D33 IgG (fmol/cell well) was 1380, the cyclic AMP; T21 + 10 µg/mL 9D33 IgG (fmol/cell well) worked out at 605 and the cyclic AMP; T21 + 100 µg/mL 9D33 IgG (fmol/cell well) amounted to 442. Moreover, in assay [11], the “% inhib of 125I-TSH binding at 0.01 µg/mL” value is 8%, the “% inhib of 125I-TSH binding at 0.1 µg/mL” value came to 31%, the “% inhib of 125I-TSH binding at 1 µg/mL” value turned out to be 55% and the “% inhib of 125I-TSH binding at 10 µg/mL” value was 65%. Further, in assay [11], the “% inhib of 125I-TSH binding at 100 µg/mL” value was 69%. For the same molecule, in assay [12], the “% inhib of 125I-5C9 IgG binding at 0.01 µg/mL” value stood at 13%, the “% inhib of 125I-5C9 IgG binding at 0.1 µg/mL” value was 29%, the “% inhib of 125I-5C9 IgG binding at 1 µg/mL” value stood at 48% and the “% inhib of 125I-5C9 IgG binding at 10 µg/mL” value was found to be 60%. Further, in assay [12], the “% inhib of 125I-5C9 IgG binding at 100 µg/mL” value came out at 70%. In addition, in assay [13], the “% inhib of 125I-M22 IgG binding at 0.01 µg/mL” value came out at 13%, the “% inhib of 125I-M22 IgG binding at 0.1 µg/mL” value is 27%, the “% inhib of 125I-M22 IgG binding at 1 µg/mL” value stood at 48% and the “% inhib of 125I-M22 IgG binding at 10 µg/mL” value amounted to 60%. The “% inhib of 125I-M22 IgG binding at 100 µg/mL” value in assay [13] is 61%.
